Test results published in US20240018252A1 (Pfizer, published 2024).

Assays:
[1] = molecular target: T1, human BCMA on BCMA-expressing tumor cells (human, UniProt Q02223 1-184); assay: flow cytometry, 0.5 ug antibody on 250,000 MM1S (BCMA++) cells, Alexa Fluor 647 anti-mouse IgG
T1 construct: endogenous BCMA of myeloma cell lines; also called BCMA on KMS12PE, MM1S (MM1.S), L363, KMS12BM cells
T1 sequence: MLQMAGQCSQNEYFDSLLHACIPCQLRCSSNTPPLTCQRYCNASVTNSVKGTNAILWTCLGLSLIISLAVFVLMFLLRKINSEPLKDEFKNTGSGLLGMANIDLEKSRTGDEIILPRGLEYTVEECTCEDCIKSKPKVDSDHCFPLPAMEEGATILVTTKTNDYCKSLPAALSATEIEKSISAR
Method: (§1) Binding of human anti-hBCMA expressed in mouse IgG2a were assessed on BCMA-expressing cells (KMS12BM, L363, MM1S and KMS12PE) by flow cytometry. 250,000 cells were incubated with 0.5 ug antibody in 100 uL binding buffer (PBS (Phosphate Buffered Saline)+0.2% BSA (Bovine Serum Albumin)), followed by incubation with Alex Fluor 647 conjugated anti-mouse IgG (Biolegend).

[2] = molecular target: T1, human BCMA on BCMA-expressing tumor …; assay: flow cytometry, 0.5 ug antibody on 250,000 KMS12PE (BCMA+++) cells, Alexa Fluor 647 anti-mouse IgG
Method: as §1

[3] = molecular target: T1, human BCMA on BCMA-expressing tumor …; assay: flow cytometry, 0.5 ug antibody on 250,000 L363 (BCMA+) cells, Alexa Fluor 647 anti-mouse IgG
Method: as §1

[4] = molecular target: T1, human BCMA on BCMA-expressing tumor …; assay: flow cytometry, 0.5 ug antibody on 250,000 KMS12BM (BCMA+) cells, Alexa Fluor 647 anti-mouse IgG
Method: as §1

[5] = molecular target: T2, human CD3 (huCD3ed) (human, UniProt P07766 23-126; P04234 22-105); assay: Biacore SPR, antibody as ligand, hCD3ed; steady state affinity only, rough estimate (antibody heterogeneous)
T2 construct: Soluble analyte in SPR; The delta chain is inferred from the label 'ed'; also called hCD3ed; hCD3
T2 sequence (P07766 23-126, chain 1 of 2): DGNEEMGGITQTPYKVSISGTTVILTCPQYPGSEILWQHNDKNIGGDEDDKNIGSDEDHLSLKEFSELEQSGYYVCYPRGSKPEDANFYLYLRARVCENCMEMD
T2 sequence (P04234 22-105, chain 2 of 2): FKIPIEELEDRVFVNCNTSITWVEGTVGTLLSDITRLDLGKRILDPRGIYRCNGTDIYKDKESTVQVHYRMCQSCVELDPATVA

| Binder | MFI [1] | MFI [2] | MFI [3] | MFI [4] | Kd [5] |
| --- | --- | --- | --- | --- | --- |
| A02_Rd4_6 nM_C16 expressed in mouse IgG2a (antibody, V domains shown) VH: EVQLLESGGGLVQPGGSLRLSCAASGFTFSSYAMNWVRQAPGKGLEWVSAISDFGGSTYYADSVKGRFTISRDNSKNTLYLQMNSLRAEDTAVYYCARYWPMDIWGQGTLVTVSS VL: EIVLTQSPGTLSLSPGERATLSCRASQSVSDLYLAWYQQKPGQAPRLLMYDASIRATGIPDRFSGSGSGTDFTLTISRLEPEDFAVYYCQQYQTWPLTFGQGTKVEIK | 1950 | 3090 | 789 | 421 |  |
| A02_Rd4_6 nM_C01 expressed in mouse IgG2a (antibody, V domains shown) VH: EVQLLESGGGLVQPGGSLRLSCAASGFTFSSYAMNWVRQAPGKGLEWVSAITASGGSTYYADSVKGRFTISRDNSKNTLYLQMNSLRAEDTAVYYCARYWPMSLWGQGTLVTVSS VL: EIVLTQSPGTLSLSPGERATLSCRASQSVSAYYLAWYQQKPGQAPRLLMYDASIRATGIPDRFSGSGSGTDFTLTISRLEPEDFAVYYCQQYERWPLTFGQGTKVEIK | 2540 | 5860 | 1180 | 580 |  |
| Combo_Rd4_0.6 nM_C29 expressed in mouse IgG2a (antibody, V domains shown) VH: EVQLLESGGGLVQPGGSLRLSCAASGFTFSSYPMSWVRQAPGKGLEWVSAIGGSGGSLPYADSVKGRFTISRDNSKNTLYLQMNSLRAEDTAVYYCARYWPMDIWGQGTLVTVSS VL: EIVLTQSPGTLSLSPGERATLSCRASQSVSSSYLAWYQQKPGQAPRLLMYDASIRATGIPDRFSGSGSGTDFTLTISRLEPEDFAVYYCQQYQSWPLTFGQGTKVEIK | 2570 | 6110 | 1670 | 583 |  |
| 7A3 (antibody, mouse IgG1, V domains shown, Cloned from immunized mouse, expressed as mouse IgG1; also called anti-CD3 7A3) VH: EVQLQQSGAELVRPGALVKLSCKGSGFNIKDYYIHWVKQRPEQGLEWIGWIDPENGNNKYDPKFQGKASITADTSSNIAYLQLSSLTSEDTAVYYCARNDNYAFDYWGQGTTVTVSS VL: DIVVSQSPSSLAVSAGEKVIMSCKSSQSLLNSRTRKNYLAWYQLKPGQSPKLLIYSASTRESGVPDRFTGSGSGTDFTLTISSVQTEDLAVYYCMQSFTLRTFGGGTKLEIK |  |  |  |  | 82.7 nM |
| 1A4 (antibody, mouse IgG1, V domains shown, Cloned from immunized mouse, expressed as mouse IgG1; also called anti-CD3 1A4) VH: QVQLQQSGPDLVKPGASVEISCKASGYSFTTYYLHWVRQRPGQGLEWIGWIFPGSDNTKYNEKFKGKATLTADTSSSTAYMQLSSLTSEDSAVYFCARNRDYYFDYWGQGTTVTVSS VL: DIVMSQSPSSLAVSAGEKVTMSCKSSQSLLNSRTRKNYLAWYQQKPGQSPKLLIYWASTRASGVPDRFTGSGSGTDFTLTISSVQAEDLAIYYCKQSFILRTFGGGTKLEIK |  |  |  |  | 100 nM |
